For orientation: stoichiometry N means the number of molecules, sites or subunits per partner or assembly.

Drawing on article PMC6158212, this text covers stoichiometry N for one substance.

The experiment addresses GP ectodomain of EBOV strain Mayinga-76 with a deleted mucin-like domain (EBOV GPΔMuc) (Zaire EBOV strain Mayinga-76). The experiment is described as follows: crystal structure.

“GP ectodomain of EBOV strain Mayinga-76 with a deleted mucin-like domain (EBOV GPΔMuc) (complex)” registered a stoichiometry N of 3.
